Patent publication US20220227872A1 (LUDWIG INSTITUTE FOR CANCER RESEARCH, published 2022)

B1: human tumor endothelial marker 1 (TEM1) on cells (receptor)
chain: QDPWAAEPRAACGPSSCYALFPRRRTFLEAWRACRELGGDLATPRTPEEAQRVDSLVGAGPASRLLWIGLQRQARQCQLQRPLRGFTWTTGDQDTAFTNWAQPASGGPCPAQRCVALEASGEHRWLEGSCTLAVDGYLCQFGFEGACPALQDEAGQAGPAVYTTPFHLVSTEFEWLPFGSVAAVQCQAGRGASLLCVKQPEGGVGWSRAGPLCLGTGCSPDNGGCEHECVEEVDGHVSCRCTEGFRLAADGRSCEDPCAQAPCEQQCEPGGPQGYSCHCRLGFRPAEDDPHRCVDTDECQIAGVCQQMCVNYVGGFECYCSEGHELEADGISCSPAGAMGAQASQDLGDELLDDGEDEEDEDEAWKAFNGGWTEMPGILWMEPTQPPDFALAYRPSFPEDREPQIPYPEPTWPPPLSAPRVPYHSSVLSVTRPVVVSATHPTLPSAHQPPVIPATHPALSRDHQIPVIAANYPDLPSAYQPGILSVSHSAQPPAHQPPMISTKYPELFPAHQSPMFPDTRVAGTQTTTHLPGIPPNHAPLVTTLGAQLPPQAPDALVLRTQATQLPIIPTAQPSLTTTSRSPVSPAHQISVPAATQPAALPTLLPSQSPTNQTSPISPTHPHSKAPQIPREDGPSPKLALWLPSPAPTAAPTALGEAGLAEHSQRDDRWLLVALLVPTCVFLVVLLALGIVYCTRCGPHAPNKRITDCYRWVIHAGSKSPTEPMPPRGSLTGVQTCRTSV
notes: Endogenous on A673 and SK-N-AS cells, or full length hTEM1 ORF (NM_020404.3) in pTagGFP2-N transiently expressed in HEK293T cells; also called hTEM1; human TEM1
B2: anti-TEM1 scFv-Fc fusion 2B11 (Fc fusion)
VH: EVQLVETGGGLVKPGGSLRLSCAASGFTFNTYTMNWVRQAPGKGLEWVSSISSSSTYIYYADSVKGRFTISRDNAKNSLYLQMNSLRAEDTAVYYCAKSIVGATHDAFDIWGQGTMVTVSS
VL: DIQMTQSPPTLSASVGDRVTITCRASQSISRWLAWYQQKPGKAPNLLIYDASNLQSGVPSRFSGSGSGTEFTLTISSLQPDDFGTYYCQQYKNYSPTFGQGTKLEIK
notes: also called 2B11 scFv-Fc
B3: murine tumor endothelial marker 1 (TEM1) on cells (receptor)
chain: QVPWTPEPRAACGPSSCYALFPRRRTFLEAWRACRELGGNLATPRTPEEAQRVDSLVGVGPANGLLWIGLQRQARQCQPQRPLRGFIWTTGDQDTAFTNWAQPATEGPCPAQRCAALEASGEHRWLEGSCTLAVDGYLCQFGFEGACPALPLEVGQAGPAVYTTPFNLVSSEFEWLPFGSVAAVQCQAGRGASLLCVKQPSGGVGWSQTGPLCPGTGCGPDNGGCEHECVEEVDGAVSCRCSEGFRLAADGHSCEDPCAQAPCEQQCEPGGPQGYSCHCRLGFRPAEDDPHRCVDTDECQIAGVCQQMCVNYVGGFECYCSEGHELEADGISCSPAGAMGAQASQDLRDELLDDGEEGEDEEEPWEDFDGTWTEEQGILWLAPTHPPDFGLPYRPNFPQDGEPQRLHLEPTWPPPLSAPRGPYHSSVVSATRPMVISATRPTLPSAHKTSVISATRPPLSPVHPPAMAPATPPAVFSEHQIPKIKANYPDLPFGHKPGITSATHPARSPPYQPPIISTNYPQVFPPHQAPMSPDTHTITYLPPVPPHLDPGDTTSKAHQHPLLPDAPGIRTQAPQLSVSALQPPLPTNSRSSVHETPVPAANQPPAFPSSPLPPQRPTNQTSSISPTHSYSRAPLVPREGVPSPKSVPQLPSVPSTAAPTALAESGLAGQSQRDDRWLLVALLVPTCVFLVVLLALGIVYCTRCGSHAPNKRITDCYRWVTHAGNKSSTEPMPPRGSLTGVQTCRTSV
notes: also called mTEM1; murine TEM1

Tests used:
[1] = molecular target: T1, anti-TEM1 scFv-Fc fusion 3B6; assay: FACS on cell lines
T1 construct: also called 3B6 scFv-Fc
Method: (§1) A673, human Ewing's sarcoma; SK-N-AS, human neuroblastoma; 2H11, murine tumor vascular endothelium; TC1, murine lung adenocarcinoma; HEK293-6E, human embryonic kidney; HT-1080, human fibrosarcoma; MDA-MB-231, human mammary carcinoma; MS1, murine pancreatic islet endothelium.
(§2) Adherent cells were detached using 10 mM EDTA, counted and resuspended in fresh, complete culture medium. All subsequent steps were performed on ice. […] After washing three times with FACS buffer, the secondary antibody, Alexa Fluor 647 AffiniPure Goat Anti-Human IgG (Jackson Immunoresearch, #109-605-098, 1:200 dilution) was added. Following incubation for 30 min the cells were washed again three times. Immediately before data acquisition, dead cells were stained with 4′,6-Diamidino-2-phenylindole (DAPI, 1:2000 dilution). Data was acquired using an LSR-II flow cytometer equipped with […] software (BD Biosciences). Data analysis and plotting were carried out using FlowJo v10 (FlowJo LLC).

[2] = molecular target: B3; assay: FACS, scFv-Fc 2 µg/ml on human and murine cell lines
Method: as §1, §2

[3] = molecular target: B1; assay: FACS on cell lines
Method: as §1, §2

[4] = molecular target: T1, anti-TEM1 scFv-Fc fusion 3B6; assay: FACS, scFv-Fc 2 µg/ml on human and murine cell lines
Method: as §1, §2

T1 sequence (VH, as listed by the source, chain 1 of 2): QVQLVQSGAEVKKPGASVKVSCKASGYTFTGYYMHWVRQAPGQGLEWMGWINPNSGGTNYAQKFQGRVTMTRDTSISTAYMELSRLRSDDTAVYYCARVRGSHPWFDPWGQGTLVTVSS
T1 sequence (VL, as listed by the source, chain 2 of 2): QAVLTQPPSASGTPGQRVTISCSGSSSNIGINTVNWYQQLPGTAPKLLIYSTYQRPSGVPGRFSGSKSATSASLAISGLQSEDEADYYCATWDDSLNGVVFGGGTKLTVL

Binder: B1
binding result [1]: binds

Binder: B2
binding result [2]: binds | binding result [3]: binds

Binder: B3
binding result [4]: binds
